T1: human DLL3 (ACRO, DLL3-H52H4) (human, UniProt Q9NYJ7 27-492)
T1 construct: Bought
T1 sequence: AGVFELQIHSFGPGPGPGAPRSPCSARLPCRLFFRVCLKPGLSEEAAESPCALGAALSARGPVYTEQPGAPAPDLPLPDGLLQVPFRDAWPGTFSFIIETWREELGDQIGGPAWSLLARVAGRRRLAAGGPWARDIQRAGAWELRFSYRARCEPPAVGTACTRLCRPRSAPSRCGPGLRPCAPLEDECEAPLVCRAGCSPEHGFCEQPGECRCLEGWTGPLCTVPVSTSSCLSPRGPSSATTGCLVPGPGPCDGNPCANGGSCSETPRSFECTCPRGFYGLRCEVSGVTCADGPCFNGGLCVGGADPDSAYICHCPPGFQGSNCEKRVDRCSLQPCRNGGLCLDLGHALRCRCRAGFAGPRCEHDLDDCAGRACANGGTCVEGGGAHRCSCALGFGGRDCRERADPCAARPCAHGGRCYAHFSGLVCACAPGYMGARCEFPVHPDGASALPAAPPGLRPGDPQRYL

T2: human DLL3 on cells (human, UniProt Q9NYJ7 27-618)
T2 construct: Endogenous on H1184 and SHP77; Cell line is named under assay; also called H1184; DLL3/H82
T2 sequence: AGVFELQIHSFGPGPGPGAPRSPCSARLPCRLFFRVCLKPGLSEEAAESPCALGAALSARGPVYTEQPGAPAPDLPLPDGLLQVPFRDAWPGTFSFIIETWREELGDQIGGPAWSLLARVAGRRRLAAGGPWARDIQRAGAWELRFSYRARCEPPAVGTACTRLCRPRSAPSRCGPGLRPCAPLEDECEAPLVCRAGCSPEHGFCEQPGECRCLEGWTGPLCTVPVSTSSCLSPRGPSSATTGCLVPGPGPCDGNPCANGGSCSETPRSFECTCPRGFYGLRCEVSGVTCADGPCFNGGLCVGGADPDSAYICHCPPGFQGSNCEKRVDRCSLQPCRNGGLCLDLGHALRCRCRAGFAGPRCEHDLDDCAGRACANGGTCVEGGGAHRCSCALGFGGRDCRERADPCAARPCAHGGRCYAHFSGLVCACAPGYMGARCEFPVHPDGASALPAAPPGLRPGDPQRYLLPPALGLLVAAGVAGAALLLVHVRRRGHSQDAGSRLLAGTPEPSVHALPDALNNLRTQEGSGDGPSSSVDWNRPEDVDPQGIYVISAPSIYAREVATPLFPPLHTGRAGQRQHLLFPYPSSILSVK


What was measured:
[1] = biological target: T1, human DLL3 (ACRO, DLL3-H52H4); experiment: SPR Biacore 8K, Ab captured on Protein A
Text: Test antibodies were affinity-captured with a Protein A biosensor chip (Cat. #29127556, Cytiva) for 18 seconds, and then the antigens human DLL3 (ACRO, DLL3-H52H4), cynomolgus monkey DLL3 (KACTUS, DLL-RM103), mouse DLL3 (KACTUS, DLL-MM103), human CD3D&3E (ACRO, CDD-H52W1), and monkey CD3D&3E (ACRO, CDD-C52W4) were allowed to flow through the surface of the chip for 180 seconds, followed by 600 seconds of dissociation. Reaction signals were detected in real time using a Biacore 8K (Cytiva) instrument to obtain association and dissociation curves. After the dissociation in each experimental cycle, the chip was washed and regenerated with a 10 mM glycine-hydrochloric acid solution (pH 1.5, Cat. #BR-1003-54, Cytiva). Data fitting was performed using a 1:1 Model.

human DLL3 on cells = biological target: T2, human DLL3 on cells; experiment: flow cytometry, DLL3/H82 cells; parameters: key to Emax: geometric mean fluorescence intensity (flow cytometry)
Procedure: The plates were centrifuged at 300 g for 5 min, and the supernatant was removed. Different concentrations of test antibodies were added at 100 μL/well. The plates were incubated in the dark in a refrigerator at 4° C. for 1 h. After 3 centrifugal washes at 300 g, working concentrations of APC anti-human IgG Fc (BioLegend, 410712) or PE F(ab′)2-goat anti-human IgG (invitrogen, H10104) were added. The plates were incubated in the dark in a refrigerator at 4° C. for 40 min. After 3 centrifugal washes at 300 g, the geometric mean fluorescence intensity was measured on an Invitrogen flow cytometer, and the EC50 values for the binding of the antibodies to DLL3-expressing cells were calculated.

| Kd [1] | koff [1] | kon [1] | EC50 (human DLL3 on cells) | Emax (human DLL3 on cells) | Binder |
| --- | --- | --- | --- | --- | --- |
| 0.882 nM | 0.000956 s⁻¹ | 1.08e+06 M⁻¹ s⁻¹ | 0.43 nM | 5340 | hu30L3H4 (antibody, human IgG1, kappa, V domains shown) VH: EVRLVQSGAEVKKPGASVKVSCKASGYTFTDYYMNWVRQAPGQSLEWMGIINPYSGDTSYNQKFRGRVTLTVDKSASTAYMELSSLRSEDTAVYYCARYHYGPHLEGYFDVWGQGTTVTVSS VL: DIVMTQSPKSLAVSLGERATINCKASENVGYVSWYQQKPGQSPKLLIYGASNRYTGVPDRFSGSGSATDFTLTISSLQAEDVAVYHCGQSYSYPLTFGQGTKLEIKR |
| 0.735 nM | 0.00082 s⁻¹ | 1.12e+06 M⁻¹ s⁻¹ | 0.43 nM | 5250 | hu30L3H5 (antibody, human IgG1, kappa, V domains shown) VH: EVRLVQSGAEVKKPGASVKVSCKASGYTFTDYYMNWVRQAPGQSLEWMGIINPYTGDTSYNQKFRGRVTLTVDKSASTAYMELSSLRSEDTAVYYCARYHYGPHLEGYFDVWGQGTTVTVSS VL: DIVMTQSPKSLAVSLGERATINCKASENVGYVSWYQQKPGQSPKLLIYGASNRYTGVPDRFSGSGSATDFTLTISSLQAEDVAVYHCGQSYSYPLTFGQGTKLEIKR |
| 0.939 nM | 0.000894 s⁻¹ | 952000 M⁻¹ s⁻¹ | 0.46 nM | 5340 | hu30L3H6 (antibody, human IgG1, kappa, V domains shown) VH: EVRLVQSGAEVKKPGASVKVSCKASGYTFTDYYMNWVRQAPGQSLEWMGIINPYNVDTSYNQKFRGRVTLTVDKSASTAYMELSSLRSEDTAVYYCARYHYGPHLEGYFDVWGQGTTVTVSS VL: DIVMTQSPKSLAVSLGERATINCKASENVGYVSWYQQKPGQSPKLLIYGASNRYTGVPDRFSGSGSATDFTLTISSLQAEDVAVYHCGQSYSYPLTFGQGTKLEIKR |
| 0.815 nM | 0.000853 s⁻¹ | 1.05e+06 M⁻¹ s⁻¹ | 0.43 nM | 5450 | hu30L3H7 (antibody, human IgG1, kappa) heavy: not shown light: DIVMTQSPKSLAVSLGERATINCKASENVGYVSWYQQKPGQSPKLLIYGASNRYTGVPDRFSGSGSATDFTLTISSLQAEDVAVYHCGQSYSYPLTFGQGTKLEIKRTVAAPSVFIFPPSDEQLKSGTASVVCLLNNFYPREAKVQWKVDNALQSGNSQESVTEQDSKDSTYSLSSTLTLSKADYEKHKVYACEVTHQGLSSPVTKSFNRGEC |

Second part, the binder before the results:

| Binder | Kd [1] | koff [1] | kon [1] | EC50 (human DLL3 on cells) | Emax (human DLL3 on cells) |
| --- | --- | --- | --- | --- | --- |
| hu30L3H1 (antibody, human IgG1, kappa, V domains shown) VH: EVQLVQSGAEVKKPGASVKVSCKASGYTFTDYYMNWVRQAPGQSLEWMGIINPYNGDTSYNQKFRGRVTITVDKSASTAYMELSSLRSEDTAVYYCARYHYGPHLEGYFDVWGQGTTVTVSS VL: DIVMTQSPKSLAVSLGERATINCKASENVGYVSWYQQKPGQSPKLLIYGASNRYTGVPDRFSGSGSATDFTLTISSLQAEDVAVYHCGQSYSYPLTFGQGTKLEIKR | 0.362 nM | 0.00059 s⁻¹ | 1.63e+06 M⁻¹ s⁻¹ | 0.51 nM | 5530 |
| hu30L3H2 (antibody, human IgG1, kappa) heavy: not shown light: DIVMTQSPKSLAVSLGERATINCKASENVGYVSWYQQKPGQSPKLLIYGASNRYTGVPDRFSGSGSATDFTLTISSLQAEDVAVYHCGQSYSYPLTFGQGTKLEIKRTVAAPSVFIFPPSDEQLKSGTASVVCLLNNFYPREAKVQWKVDNALQSGNSQESVTEQDSKDSTYSLSSTLTLSKADYEKHKVYACEVTHQGLSSPVTKSFNRGEC | 0.891 nM | 0.000762 s⁻¹ | 855000 M⁻¹ s⁻¹ | 0.44 nM | 5390 |
| hu30L3H3 (antibody, human IgG1, kappa, V domains shown) VH: EVRLVQSGAEVKKPGASVKVSCKASGYTFTDYYMNWVRQAPGQSLEWMGIINPYQGDTSYNQKFRGRVTLTVDKSASTAYMELSSLRSEDTAVYYCARYHYGPHLEGYFDVWGQGTTVTVSS VL: DIVMTQSPKSLAVSLGERATINCKASENVGYVSWYQQKPGQSPKLLIYGASNRYTGVPDRFSGSGSATDFTLTISSLQAEDVAVYHCGQSYSYPLTFGQGTKLEIKR | 1.25 nM | 0.00131 s⁻¹ | 1.05e+06 M⁻¹ s⁻¹ | 0.43 nM | 5300 |

From patent US20250376519A1 (JIANGSU HENGRUI PHARMACEUTICALS, published 2025)
